# Measurements taken from the DeepSol protein solubility set.
# Test: soluble on expression in E. coli; label from the status in PepcDB or PDB records
row,Sequence,soluble on expression in E. coli
1,MNPERQETISPKNVPFQPVPTPNQQSLQSRMLESNQAVPDAFQKVAAWNHYNAVATPPIGVPQTARPPSNQSPHPNPPGYPYQSHQQQFHPLAIAFQQPFGLPQQVIYPPPPPGFTPHRVQVSPVGLLGPPGFFPQFAGSTTSQGNPSEVSVRTKSAEGTTGPIAPSITTKPTSTIQVAPPRDPVAPTTSSSGITKKPENGEFSLVKTISGHTKSVSVIKFSYCGKYLGTGSADKQIKVWNTVDMTYLQTLASHQLGINDFSWSSNSQFIASASDDTTVKIFDVISGACLRTMRGHTNYVFCCSFNPQSSLIASAGFDETVRVWDFKTGLCVKCIPAHSDPITSISYNHDGNTMATSSYDGCIRVWDAASGSCLKTLVDTDHAPVTFVCFSPNGKYLLSAQLDSSLKLWDPKKAKPLKYYNGHKNKKYCLFANMSVPLGKHIISGSEDGRILVWSIQTKQIVQILEGHTTPVLATDSHPTLNIIASGGLEPDNVIRIWRRN,not soluble
2,MNPLKKIKDWIAEGKAGWHLAGGRSSLKQGKYKEALKEFRKALKARPNNPEILHYNAITLLKLKRPEKALECYEKILKNNPKLAEAWNNKGLVLKELGRYDEALECYEKALKINPKYAGAWNNKALVLKELGRYDEALECYEKALQINPKLADAWYNKGSVLIYLKKYKKALKCFEKAIELNPKNYRAWGTKGITLHNLKIYEEALKCYDKVLQLNPQDDKAWNNKGLVFNELGRYDESLECYEKALQINPKLAEAWNNKGVVLSELGRYEEALECYEKALEIDPEDDKTWNNKGLVLEELGKYKDALECFQKALEINPEFADAWKWKGIILEDLKKPEESLKCYKKALKLNPPKQNTMVHARKNTTKTRQTQRSTKML,not soluble
3,MNPLLTDSRRQALRSASHWYAVLSGERVSPQQEARWQQWYEQDQDNQWAWQQVENLRNQLGGVPGDVASRALHDTRLTRRHVMKGLLLLLGAGGGWQLWQSETGEGLRADYRTAKGTVSRQQLEDGSLLTLNTQSAADVRFDAHQRTVRLWYGEIAITTAKDALQRPFRVLTRQGQLTALGTEFTVRQQDNFTQLDVQQHAVEVLLASAPAQKRIVNAGESLQFSASEFGAVKPLDDESTSWTKDILSFSDKPLGEVIATLTRYRNGVLRCDPAVAGLRLSGTFPLKNTDAILNVIAQTLPVKIQSITRYWINISPL,soluble
4,MNPTFLEFIGANQRSSCGYCKNDRGERTPARSAKSGAWAHSMTVNDYSGLLDVGWRRSGRYLYKPDNRVTCCPQYTIRLDVTKFKMSRSQKRAMRQMNEFLATGKRPVCGIKEEDAPVEMNLKGSGSQSEQSKKNLKSHEVSTKKMKDADRPVLTKKEIRNKKFEEKCRQKNLDPDVVRTERRQKDAARQRTIQSYIDEARPDWKHKLEVKLVSLGGDEFGTRDNESFELYKNYQHTIHKDEDCRLAGFRRFLCDSPLKKEQRGGIELGSFHLWFLLDDKLIAVCVVDILPKCFSAKYMYYNPEYSFLSLGTYTALREIEQTQRLHAIYSNLKYYYMGYYIHSCPKMRYKAKFRPSDLLCDQSFRWVDFNSCRDLLDGSTCSNGFSEFCPGAPRPASPVVDTLLVFSNGSITTLSDALTEIPEAAENEQFLANVRDLAHLVGPDLSRVVYYFNELNS,not soluble
5,MNPVHILAKKGEVAERVLVVGDPGRARLLSTLLQNPKLTNENRGFLVYTGKYNGETVSIATHGIGGPSIAIVLEELAMLGANVFIRYGTTGALVPYINLGEYIIVTGASYNQGGLFYQYLRDNACVASTPDFELTNKLVTSFSKRNLKYYVGNVFSSDAFYAEDEEFVKKWSSRGNIAVEMECATLFTLSKVKGWKSATVLVVSDNLAKGGIWITKEELEKSVMDGAKAVLDTLTS,soluble
6,MNQPSYTSGRQDVALLATTVGDAFDATVARHAEREALVVRHQRLRYSWRQLAERVDAYARAFIALGLRPGERLGIWAPNCAEWCITQFASAKVGAVLVNINPAYRSSELEYALKQSGCSWLICADAFKTSDYHAMLGDLLPELARARPGELASERLPELRGVISLAERAPAGFLHWQGLPGLAAAVGAEELRQRQASLQFDEPINIQYTSGTTGFPKGATLSHYNILNNGYMVGESLGLGAEDRLVIPVPLYHCFGMVMGNLGCVTHGSTMIYPAPSFDAEATLLAVAEERATALYGVPTMFIAELDHPRRREFDLSSLRTGIMAGATCPIEVMRRVIGDMHMAEVQIAYGMTETSPVSLQTGPDDGLELRVTTVGRTQPRLESKIVDQTGRVVPRGEIGELCTRGYSVMLGYWNDPQATAEAIDPARWMHTGDLAVMDDDGYVRIVGRSKDMIIRGGENIYPRELEEFFFTHPAVADVQVIGIPDERYGEEIVAWIKLHPGHHADDEQLRAFCKARIAHFKIPRHFKFVDEFPMTVTGKIQKFRMREISIEEIRLLALRQGR,not soluble
7,MNQRKLDHEVKTLQVQAAQFAKQTGQWIGMVENFNQALKEIGDVENWARSIELDMRTIATALEYVYKGQLQSAPS,soluble
8,MNQYSSFSPSSPSSSSRPSGGGGQSSHQTTPKSSGNPRQQQAQPRHRQRKAQSSSPASLAAFASSSVCSSPSARNVPLPPVEWLNQLQVPGQLENSSRPSSSISMTSSASSSTSSLSSSDAPMITMTPRRAAQKEMKPKTDVLGVRVCPLQLIAAIASA,not soluble
9,MNRFLKHWRLSGRCEAFHGQIISYADDFVILSRGHAEDALTWTKAVMTKLGLTLNETKTSVKNARLESFDFLGYTLGPRHFRNGGRWYLGAAPSKKSVLRIKRKVSELLTPGNKGAWPEVQARLNRLLRGWSAYFSYGSLATAHQAVDRHVFDRVLAFLRRRHKTPGRGVRRFSDQIYGNPGVLVLNRVRKVSPTCALLEHHHHHH,not soluble
10,MNRIIDMRCRPPLPEFREYFDIPRITWHGARTGAKQVSRAFVEGSMDLFFEEMDQAGIEIAVVQGRNSPAVFMGKQFNAAFIPNERLAQIQDQYAGRFVCFAGIDVSNTAHNAVEETVRSIKSLGLKGIFIEPGRQIQSTPDDERIFPVYEKCIELDIPVNLMSGPYAGADIGVSDPLYVDRLCTRYPELKIILGHGGYPYVQQILGVAFKHTNLFVSPDMYVFAPGGQAYIDAANGALRDQMVYGSAYPLRPVTQTVSDTLGLGLSADSERAYLELNARKLLNIAAALEHHHHHH,not soluble
11,MNRLPVDDVIPDLLTALEQRNAAVLQAPPGAGKTTRVPLALLDAPWLNGKRIIMLEPRRLAATNAARWMARSLGEEAGATVGYAIRFDRRVSARTRVEVVTEGILTRRLQSDPLLEGVGAVIFDEFHERSIHSDLALALCRDVQAGLREDLRIIVMSA,not soluble
12,MNRQIVRSALFVPATRPERIPKALASGADRVIVDLEDAVEEGLKVEARANLRRFLVDTPEARVLVRINAAEHPGHADDLALCRDHAGVIGLLLPKVESAAQVRHAAVASGKPVWPIVESARGLAALGEIAAAAGVERLSFGSLDLALDLDLNSGSNAAEQILGHARYALLLQTRLAGLAPPLDGVYPAIQNRAGLVEAVRFARDMGFGGLLCIHPSQVEPIHQTLMPSPAELEWARRVAEAGASGAGVFVVDGEMVDAPVLGRARRLLERAGEGG,not soluble
13,MNRRRKLLIPLLFCGAMLTACDDKSAENAAAMTPEVGVVTLSPGSVNVLSELPGRTVPYEVAEIRPQVGGIIIKRNFIEGDKVNQGDSLYQIDPAPLQAELNSAKGSLAKALSTASNARITFNRQASLLKTNYVSRQDYDTARTQLNEAEANVTVAKAAVEQATINLQYANVTSPITGVSGKSSVTVGALVTANQADSLVTVQRLDPIYVDLTQSVQDFLRMKEEVASGQIKQVQGSTPVQLNLENGKRYSQTGTLKFSDPTVDETTGSVTLRAIFPNPNGDLLPGMYVTALVDEGSRQNVLLVPQEGVTHNAQGKATALILDKDDVVQLREIEASKAIGDQWVVTSGLQAGDRVIVSGLQRIRPGIKARAISSSQENASTESKQ,not soluble
14,MNRSDKWQQRVAQVAYRFNQQYQNQSLELPAEVQEMPIYREWISGILAGKIASPFWEMAQPQKNQHCLDIGCGVSFLIYPWRDWQAFFYGQDVSNVARDTLNSRGSQLNSKLFKGVELGAAHQLKYTLSYFDLAIATGFSCYFPLEYWTSVLQAVKRVLKPDGHFVFDILNAAHPQAEDWAVLETYLGAEVFLEPVTEWEKIINAAGAKVVGRQPGEFFDLYKLRLEHHHHHH,not soluble
15,MNSFYSQEELKKIGFLSVGKNVLISKKASIYNPGVISVGNNVRIDDFCILSGKVTIGSYSHIAAYTALYGGEVGIEMYDFANISSRTIVYAAIDDFSGNALMGPTIPNQYKNVKTGKVILKKHVIIGAHSIIFPNVVIGEGVAVGAMSMVKESLDDWYIYVGVPVRKIKARKRKIVELENEFLKSMNSLEHHHHHH,not soluble
16,MNSLFLLLFICFNSGCGRKYYEEDIDRAFRSAEAEILPFRPHNVFSSDDSLMLNYSIAALAAIKMAQKTRDPRQKLPHHLCPLKKYNCLYGKYRHSDGRCTNIFFALSGSAYSSFSRRIPANYDDDISTPRLHGYRNGLLPPPAVVEKQIARTPAIYAISLTNTFLEFSEFLYNDLVKFVRLQDGLGCCGTGKSGECLNFGENFLDCYIRSAPSPRAHCSLGRREQMNLATAFLDAGPIYQDLRDTSKGKISSSFTLESTTKSSIHSLLIDEHNWVVDQIQKKFPDMGLELIFEEARKFVIAELQHITFEQFLPILLGDETMKKYDLRASHCDGGSCHEVEANTLNEFGSAVGLFYKFMTSSDKIYNPSLYSTSDFSTSPTSSSSKSPNVAEIISKGRDHGIATYSQWRKECGGGELKTYEDLIDLIDSNILKSLRDLYPDVLDVDLILLGIAENPVYGSLLGPTFGCIMALQFQKTKFGDTYWYTNKLTEDQLEEVKKTSISAMMCRHQKTSIIQKDVFKAADNFQNIPIFCNSSVFAKPDFSKWVETPEKHKNEQFDDILGECILEVFEARNRQRPATLQEGLHNSVALKSYGSMMLAKDEAVNEANVSLILLEATKKLVKLKHIELDSIQSVNIGEDFGKKSDSQCNPKNLPCDSTNPYRSYTGWCNNLETPSLANTFRELRRLLPPAYEDGIDLPRSKTITGSRLPSPRVISNMVHHAKKIEHVKYSHFVMEFGQFIDHDITHSPVDQNSDGTALNCSRCDSGRFVSPSCFPIPVPVNDVHFEPFSCLSFVRSLPAQKTLGYRNQMNQVSAYLDGSVMYGSTKCEGDRLRTFQDGKMKTTQTSRAPRHYGITLSQSDESEQDGCVSAPDAPCFIAGDDRNSQQTLLIAVHSVFHREHERITTTLKEINPNWDDEKIYQETRKLISAEFAHIVYNEYLPIIIGQKLIDDYDLRPRQDGYYDGYENCDASILQPFATAAFRFGHSTVTRFTPMQETVHDPATCVVDLASDFLNMSKIYDNEAVEQILGGMHGKHQMMTDRFVDDAIRNFLFSDRGRRGTGLDLISINIQRGRDHGIPPYNHYRSFCGLSRLTSFYSIFSDINQDGLTAIGKVYESPDDIDLFTGIVSEKTIPGGIVGPTAACIIAEQFRRLKKCDRFYYENGEDHSKFSASQLKEVRKTSMSALICANTKVPKISKDVFSVPDPFRYS,soluble
17,MNSNMVFARVNEADVTEAILDGFYSSLKKHLRSDVIVVGAGPAGLTAAWRLAEAGARVLIVEQNNYLGGGLWLGGYFMNPVTIRAPAQRILDELEVPYEAVKPGLYRTKGPLLAAKLAARALEAGAEVLNLTMLDDVIVENSRVAGVVVNWSPVQGLPRQITCVDPVGLRAEYVVDATGHDAVVTRKLAERGMVEASKLGPMWVERSEDLVVEKTGEVYPGLVVAGIAVAEVYGLPRMGPTFGAMLLSGEKAAALIGEKLGLKVKVAAAPASQA,soluble
18,MNSRQQSILQMVVDKGQMSVAELAKITGVSEVTIRQDLNTLEKQSYLRRAHGFAVSLESDDVETRMMTNYTLKRRLAEFAASLVSPGESVFIENGSSNALLARTLAEQKDVTIITVSSYIAHLLKETPCEVILLGGIYQKKSESMVGPLTRQFIHQVHFSKAFIGIDGWQADTGFTGRDMMRSDVVNAVLEKGSEAIVLTDSSKFGCVHPYPLGPLSRFHRVITDSKISASDQMQLEHAGLLVNVIGSSV,not soluble
